Literature values in US20020094542A1, “Drugs and methods for treating cancer” (priority 1989, published 2002).

Details: patients with kidney transplants

Q: With “OKT3: monoclonal heterologous AB used clinically in patients with kidney transplants” as the substance, how does the side-effects of treatment read?
A: The side-effects of treatment was “low (flu-like)”.
